The supplement of paper PMC9112550, “Optimization of the antimicrobial peptide Bac7 by deep mutational scanning” (BMC Biology, 2022)
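Also: peptides expressed intracellularly from a pBAD plasmid library in pooled LB shake-flask culture, induced with 0.3% L-arabinose, DNA abundance read by NGS, three biological replicates, DESeq2 with apeglm shrinkage.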

These sequences were tested on Escherichia coli TOP10 (assay: shrunken log2 fold change of peptide-encoding DNA abundance (4.5 h post-induction vs induction); higher = less antimicrobial activity (less host growth inhibition)). Settings: time post-induction: 4.5 h; library: site-saturation at positions 5, 18, 19, 20.
In the case of RRIRCRPPRLPRPRPRPPNTPRP, the “shrunken log2 fold change” value is reported as -0.0497. In the case of RRIRLRPPRLPRPRPRPKWNPRP, the “shrunken log2 fold change” value is reported as -0.299. In the case of RRIRTRPPRLPRPRPRPERIPRP, the “shrunken log2 fold change” value is reported as -0.18. RRIRIRPPRLPRPRPRPSDLPRP was tested, and the “shrunken log2 fold change” value was -0.0735. For RRIRWRPPRLPRPRPRPWKQPRP, the “shrunken log2 fold change” value was 0.296. For RRIRPRPPRLPRPRPRPAKRPRP, the “shrunken log2 fold change” value was 0.035. With RRIRYRPPRLPRPRPRPTYYPRP the “shrunken log2 fold change” value was -1.21. For RRIRKRPPRLPRPRPRPEIRPRP, the “shrunken log2 fold change” value was 0.171. RRIRSRPPRLPRPRPRPQWEPRP was tested, and the “shrunken log2 fold change” value was 0.022. With RRIRFRPPRLPRPRPRPHQEPRP the “shrunken log2 fold change” value was -0.0079. With RRIRLRPPRLPRPRPRPASTPRP the “shrunken log2 fold change” value was 0.0489. With RRIRGRPPRLPRPRPRPYERPRP the “shrunken log2 fold change” value was -1.8. For RRIRCRPPRLPRPRPRPTPYPRP, the “shrunken log2 fold change” value was 0.00933. RRIRFRPPRLPRPRPRPKNQPRP was tested, and the “shrunken log2 fold change” value was -0.195. For RRIRMRPPRLPRPRPRPFQKPRP, the “shrunken log2 fold change” value was -0.00623. With RRIRWRPPRLPRPRPRPRPQPRP the “shrunken log2 fold change” value was 0.588. RRIRMRPPRLPRPRPRPDAQPRP was tested, and the “shrunken log2 fold change” value was 2.65. RRIRYRPPRLPRPRPRPINQPRP was tested, and the “shrunken log2 fold change” value was -0.113. With RRIRFRPPRLPRPRPRPWPDPRP the “shrunken log2 fold change” value was 0.0228. In the case of RRIRTRPPRLPRPRPRPPLSPRP, the “shrunken log2 fold change” value is reported as -0.0606. For RRIRLRPPRLPRPRPRPWIWPRP, the “shrunken log2 fold change” value was -0.0106. For RRIRYRPPRLPRPRPRPCTNPRP, the “shrunken log2 fold change” value was 0.0527. In the case of RRIRYRPPRLPRPRPRPYCSPRP, the “shrunken log2 fold change” value is reported as -0.00208. For RRIRHRPPRLPRPRPRPVKKPRP, the “shrunken log2 fold change” value was 0.0327. With RRIRARPPRLPRPRPRPENSPRP the “shrunken log2 fold change” value was 0.172. In the case of RRIRIRPPRLPRPRPRPFRQPRP, the “shrunken log2 fold change” value is reported as 0.0326. RRIRYRPPRLPRPRPRPSPWPRP was tested, and the “shrunken log2 fold change” value was -0.513. For RRIRNRPPRLPRPRPRPRYAPRP, the “shrunken log2 fold change” value was -0.0268. In the case of RRIRTRPPRLPRPRPRPEAFPRP, the “shrunken log2 fold change” value is reported as 0.0195. For RRIRVRPPRLPRPRPRPDQWPRP, the “shrunken log2 fold change” value was -0.0427. In the case of RRIRSRPPRLPRPRPRPENEPRP, the “shrunken log2 fold change” value is reported as -0.0857. For RRIRNRPPRLPRPRPRPNGNPRP, the “shrunken log2 fold change” value was -0.0621. For RRIRVRPPRLPRPRPRPVNGPRP, the “shrunken log2 fold change” value was 0.158. With RRIRWRPPRLPRPRPRPTTRPRP the “shrunken log2 fold change” value was 0.672. With RRIRARPPRLPRPRPRPYHCPRP the “shrunken log2 fold change” value was -0.0366. In the case of RRIRGRPPRLPRPRPRPGYWPRP, the “shrunken log2 fold change” value is reported as 1.88. With RRIRQRPPRLPRPRPRPFLWPRP the “shrunken log2 fold change” value was -0.0488. With RRIRHRPPRLPRPRPRPCTPPRP the “shrunken log2 fold change” value was -0.382. For RRIRLRPPRLPRPRPRPQEDPRP, the “shrunken log2 fold change” value was -0.0336. With RRIRDRPPRLPRPRPRPPFVPRP the “shrunken log2 fold change” value was 0.0811. In the case of RRIRGRPPRLPRPRPRPDIHPRP, the “shrunken log2 fold change” value is reported as 0.439. For RRIRKRPPRLPRPRPRPQTAPRP, the “shrunken log2 fold change” value was 0.385. For RRIRTRPPRLPRPRPRPSGKPRP, the “shrunken log2 fold change” value was -0.0608. In the case of RRIRFRPPRLPRPRPRPGAVPRP, the “shrunken log2 fold change” value is reported as 0.223. With RRIRDRPPRLPRPRPRPMINPRP the “shrunken log2 fold change” value was 0.0491. In the case of RRIRNRPPRLPRPRPRPTESPRP, the “shrunken log2 fold change” value is reported as -0.0455. In the case of RRIRLRPPRLPRPRPRPMTIPRP, the “shrunken log2 fold change” value is reported as 0.0154. With RRIRCRPPRLPRPRPRPQMSPRP the “shrunken log2 fold change” value was -0.201. In the case of RRIRARPPRLPRPRPRPLKSPRP, the “shrunken log2 fold change” value is reported as 0.012. With RRIRSRPPRLPRPRPRPEMNPRP the “shrunken log2 fold change” value was 0.0588. In the case of RRIRPRPPRLPRPRPRPIPPPRP, the “shrunken log2 fold change” value is reported as -0.0888. In the case of RRIRFRPPRLPRPRPRPDLMPRP, the “shrunken log2 fold change” value is reported as -0.114. With RRIRQRPPRLPRPRPRPNWTPRP the “shrunken log2 fold change” value was -0.00963. In the case of RRIRFRPPRLPRPRPRPYPWPRP, the “shrunken log2 fold change” value is reported as -0.9. With RRIRNRPPRLPRPRPRPHGAPRP the “shrunken log2 fold change” value was 0.245. In the case of RRIRTRPPRLPRPRPRPPMEPRP, the “shrunken log2 fold change” value is reported as -0.00995. RRIRYRPPRLPRPRPRPVMHPRP was tested, and the “shrunken log2 fold change” value was -0.338. For RRIRARPPRLPRPRPRPSYVPRP, the “shrunken log2 fold change” value was -0.232. With RRIRSRPPRLPRPRPRPVNVPRP the “shrunken log2 fold change” value was -0.156. With RRIRERPPRLPRPRPRPQCHPRP the “shrunken log2 fold change” value was -0.449. With RRIRSRPPRLPRPRPRPVGRPRP the “shrunken log2 fold change” value was 0.65. In the case of RRIRNRPPRLPRPRPRPYPGPRP, the “shrunken log2 fold change” value is reported as -0.123. RRIRRRPPRLPRPRPRPNNLPRP was tested, and the “shrunken log2 fold change” value was -0.293. With RRIRMRPPRLPRPRPRPKSNPRP the “shrunken log2 fold change” value was 0.815. With RRIRTRPPRLPRPRPRPEYQPRP the “shrunken log2 fold change” value was 0.066. RRIRRRPPRLPRPRPRPYYCPRP was tested, and the “shrunken log2 fold change” value was -0.132. In the case of RRIRIRPPRLPRPRPRPYCHPRP, the “shrunken log2 fold change” value is reported as -0.743. For RRIRYRPPRLPRPRPRPIFIPRP, the “shrunken log2 fold change” value was -0.631. RRIRFRPPRLPRPRPRPMLHPRP was tested, and the “shrunken log2 fold change” value was -0.376. For RRIRKRPPRLPRPRPRPQGRPRP, the “shrunken log2 fold change” value was -0.078. In the case of RRIRFRPPRLPRPRPRPPNMPRP, the “shrunken log2 fold change” value is reported as -0.0513. RRIRPRPPRLPRPRPRPNPVPRP was tested, and the “shrunken log2 fold change” value was -0.0737. With RRIRSRPPRLPRPRPRPCKAPRP the “shrunken log2 fold change” value was 0.00989. RRIRDRPPRLPRPRPRPNMAPRP was tested, and the “shrunken log2 fold change” value was -0.144. With RRIRTRPPRLPRPRPRPPHKPRP the “shrunken log2 fold change” value was 0.242. With RRIRTRPPRLPRPRPRPVCIPRP the “shrunken log2 fold change” value was -0.195. For RRIRFRPPRLPRPRPRPVTKPRP, the “shrunken log2 fold change” value was 0.19. In the case of RRIRCRPPRLPRPRPRPRLMPRP, the “shrunken log2 fold change” value is reported as 0.174. RRIRHRPPRLPRPRPRPYNAPRP was tested, and the “shrunken log2 fold change” value was -0.00175. RRIRERPPRLPRPRPRPQVSPRP was tested, and the “shrunken log2 fold change” value was -0.0262. RRIRGRPPRLPRPRPRPMYKPRP was tested, and the “shrunken log2 fold change” value was 0.0271. RRIRSRPPRLPRPRPRPRYWPRP was tested, and the “shrunken log2 fold change” value was 0.0181. With RRIRPRPPRLPRPRPRPRYRPRP the “shrunken log2 fold change” value was 0.0725. In the case of RRIRRRPPRLPRPRPRPRYDPRP, the “shrunken log2 fold change” value is reported as 0.0442. In the case of RRIRKRPPRLPRPRPRPGMEPRP, the “shrunken log2 fold change” value is reported as 0.0527. In the case of RRIRGRPPRLPRPRPRPYLNPRP, the “shrunken log2 fold change” value is reported as -0.233. With RRIRWRPPRLPRPRPRPHRCPRP the “shrunken log2 fold change” value was 0.000478. For RRIRKRPPRLPRPRPRPPHCPRP, the “shrunken log2 fold change” value was 1.19. For RRIRSRPPRLPRPRPRPGTKPRP, the “shrunken log2 fold change” value was 0.108. RRIRPRPPRLPRPRPRPAHWPRP was tested, and the “shrunken log2 fold change” value was 0.484. In the case of RRIRMRPPRLPRPRPRPPVHPRP, the “shrunken log2 fold change” value is reported as 0.595. For RRIRWRPPRLPRPRPRPLHDPRP, the “shrunken log2 fold change” value was 0.387. In the case of RRIRERPPRLPRPRPRPDLNPRP, the “shrunken log2 fold change” value is reported as -0.322. In the case of RRIRLRPPRLPRPRPRPDAMPRP, the “shrunken log2 fold change” value is reported as 0.224. RRIRMRPPRLPRPRPRPADLPRP was tested, and the “shrunken log2 fold change” value was 0.752. With RRIRYRPPRLPRPRPRPTNWPRP the “shrunken log2 fold change” value was -0.185. RRIRLRPPRLPRPRPRPPQAPRP was tested, and the “shrunken log2 fold change” value was 0.872. With RRIRSRPPRLPRPRPRPYHIPRP the “shrunken log2 fold change” value was -0.845. For RRIRERPPRLPRPRPRPTVQPRP, the “shrunken log2 fold change” value was -0.157. RRIRERPPRLPRPRPRPGFVPRP was tested, and the “shrunken log2 fold change” value was 0.755. RRIRTRPPRLPRPRPRPAGHPRP was tested, and the “shrunken log2 fold change” value was -0.0189. In the case of RRIRMRPPRLPRPRPRPTIKPRP, the “shrunken log2 fold change” value is reported as 0.0703. In the case of RRIRWRPPRLPRPRPRPKTNPRP, the “shrunken log2 fold change” value is reported as 0.239. For RRIRCRPPRLPRPRPRPHPHPRP, the “shrunken log2 fold change” value was -0.0639. In the case of RRIRYRPPRLPRPRPRPSEIPRP, the “shrunken log2 fold change” value is reported as -0.271. For RRIRWRPPRLPRPRPRPVWHPRP, the “shrunken log2 fold change” value was 0.387. RRIRVRPPRLPRPRPRPEHIPRP was tested, and the “shrunken log2 fold change” value was -0.0362. With RRIRLRPPRLPRPRPRPQAPPRP the “shrunken log2 fold change” value was 0.138. With RRIRARPPRLPRPRPRPQHQPRP the “shrunken log2 fold change” value was 0.698.
